Test results: patent publication US20240199740A1 (Ablynx, published 2024)
Changes are numbered by the printed parent chain.

Legend:
[1] = target: T1, human CD3 expressed on HEK293H cells (human, UniProt P04234 22-171; P09693 23-182; P07766 23-207; P20963 22-164); assay: flow cytometry, HEK293H human CD3 cells
T1 construct: also called HEK293H CD3; HEK293H human CD3
From the text: The parental HEK293H cell line was included as TCR/CD3 negative cell line.

[2] = target: T2, human TCR/CD3 on purified primary human T cells (human, UniProt P01848 1-140; P01850 1-176); assay: flow cytometry, purified primary human T cells
T2 construct: whole, on cells; Native TCR alpha/beta with the CD3 chains on T cells isolated from buffy coat blood; also called purified primary T cells
Experimental: Dose-dependent binding of the purified monovalent anti-TCR Nanobodies to human TCRα/β (2XN9)/CD3 expressed on CHO-K1 cells and to purified primary human T cells was evaluated by flow cytometry. In brief, cells were harvested and transferred to a V-bottom 96-well plate (1×10⁵ cells/well) and serial dilutions of Nanobodies (starting from 1 pM) were allowed to associate for 30 minutes at 4° C. in FACS buffer. […] After incubation, cells were washed 3 times with FACS Buffer. Subsequently, cells were resuspended in FACS buffer supplemented with 5 nM TOPRO3 (Molecular Probes, T3605) to distinguish live from dead cells, which are removed during the gating procedure. Cells were analysed using a FACS Array flow cytometer (BD Biosciences) and Flowing Software. First a P1 population which represented more than 80% of the total cell population was selected based on FSC-SSC distribution. In this gate, 10000 cells were counted during acquisition. From this population the TOPRO+ cells (dead cells) were excluded and the median PE value was calculated.

[3] = target: T3, soluble recombinant cynomolgus TCR α/β-zipper protein (cynomolgus/rhesus monkey); assay: BLI (Octet RED384), cynomolgus TCR-zipper protein immobilized
T3 construct: Made in house in CHOK1SV cells; also called recombinant cynomolgus soluble TCRα/β-zipper protein; cynomolgus/rhesus monkey TCR α/β; not shown: the zipper protein (O'Shea et al. 1993) fused C-terminally to each chain, and any linker to it
T3 alpha: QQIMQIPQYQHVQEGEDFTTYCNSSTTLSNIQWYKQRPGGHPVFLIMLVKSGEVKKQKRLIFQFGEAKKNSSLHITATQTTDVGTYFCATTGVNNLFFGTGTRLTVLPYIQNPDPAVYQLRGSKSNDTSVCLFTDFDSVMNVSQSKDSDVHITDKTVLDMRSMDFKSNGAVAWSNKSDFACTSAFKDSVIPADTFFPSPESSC
T3 beta: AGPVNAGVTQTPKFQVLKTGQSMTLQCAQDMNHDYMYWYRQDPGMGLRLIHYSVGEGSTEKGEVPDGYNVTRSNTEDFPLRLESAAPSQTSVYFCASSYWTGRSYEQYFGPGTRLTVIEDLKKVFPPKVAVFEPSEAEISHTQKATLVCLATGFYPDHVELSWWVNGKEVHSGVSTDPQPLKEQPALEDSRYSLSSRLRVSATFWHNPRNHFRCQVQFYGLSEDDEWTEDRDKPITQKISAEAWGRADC
Experimental: Binding affinities were measured using Bio-Layer Interferometry (BLI) on an Octet RED384 instrument (Pall ForteBio Corp.). […] For kinetic analysis, sensors were first dipped into running buffer (10 mM Hepes, 150 mM NaCl, 0.05% p20, pH7.4 from GE Healthcare Life Sciences) to determine baseline setting. […] Affinity constants (KD) were calculated applying a 1:1 interaction model using the ForteBio Data Analysis software.

[4] = target: T3, soluble recombinant cynomolgus TCR …; assay: ELISA, directly coated soluble cynomolgus TCR-zipper protein
Experimental: Quality of the TCR α/β zipper proteins was assessed in an ELISA binding assay. […] After an overnight incubation, plates were washed and blocked with PBS+1% casein for 1 h at room temperature. […] The reaction was stopped with 2M H₂SO₄ and the dose dependent binding was determined by measuring the OD at 450 nm using the Tecan sunrise 4 (FIG. 2).

human CD123 [5] = target: T4, human CD123 (human, UniProt P26951 19-378); assay: cell-based or functional assay
human CD123 [6] = target: T4, human CD123; assay: cell-based or functional assay; remark: listed apart in the source
human CD123 [7] = target: T4, human CD123; assay: cell-based or functional assay; remark: listed apart in the source
human CD123 [8] = target: T4, human CD123; assay: cell-based or functional assay; remark: listed apart in the source
[9] = target: T5, cynomolgus CD123 expressed on HEK Flp-In cells (cynomolgus); assay: flow cytometry competition, HEK Flp-In cyCD123 cells, competitor A0110056A10-Alexa647 (0.9 nM)
T5 construct: EHH61867.1; also called cyCD123; cyno CD123
T5 chain: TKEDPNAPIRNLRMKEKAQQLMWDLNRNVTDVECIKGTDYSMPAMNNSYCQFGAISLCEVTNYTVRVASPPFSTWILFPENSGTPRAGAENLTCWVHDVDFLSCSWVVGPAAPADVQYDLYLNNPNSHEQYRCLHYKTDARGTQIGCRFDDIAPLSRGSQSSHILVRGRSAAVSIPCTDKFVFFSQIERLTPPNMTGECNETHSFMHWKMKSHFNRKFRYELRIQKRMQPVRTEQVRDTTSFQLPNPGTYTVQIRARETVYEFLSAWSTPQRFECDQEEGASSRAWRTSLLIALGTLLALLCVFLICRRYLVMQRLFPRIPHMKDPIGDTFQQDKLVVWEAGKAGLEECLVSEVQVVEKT
Experimental: (§1) Next to binding to the MOLM-13 and CHO Flp-In huCD123 cells, binding to cyno CD123 transfected HEK Flp-In cells was assessed.

[10] = target: T6, human CD123 expressed on cells (human, UniProt P26951 19-378); assay: cell-based or functional assay
[11] = target: T6, human CD123 expressed on cells; assay: cell-based or functional assay; remark: listed apart in the source
[12] = target: T5, cynomolgus CD123 expressed on HEK …; assay: cell-based or functional assay
[13] = target: cynomolgus TCR/CD3 expressed on cells (cynomolgus); assay: cell-based or functional assay
[14] = target: T6, human CD123 expressed on cells; assay: cell-based or functional assay; remark: listed apart in the source
[15] = target: cynomolgus TCR/CD3 expressed on cells (cynomolgus); assay: cell-based or functional assay; remark: listed apart in the source
[16] = target: T6, human CD123 expressed on cells; assay: cell-based or functional assay; remark: listed apart in the source
[17] = target: T6, human CD123 expressed on cells; assay: flow cytometry competition, CHO Flp-In huCD123 cells, competitor A0110056A10-Alexa647 (0.9 nM)
Experimental: as §1

[18] = target: T6, human CD123 expressed on cells; assay: cell-based or functional assay; remark: listed apart in the source
[19] = target: T6, human CD123 expressed on cells; assay: cell-based or functional assay; remark: listed apart in the source
[20] = target: T6, human CD123 expressed on cells; assay: cell-based or functional assay; remark: listed apart in the source
[21] = target: T6, human CD123 expressed on cells; assay: flow cytometry competition, MOLM-13 cells, competitor A0110056A10-Alexa647 (0.4 nM)
Experimental: as §1

[22] = target: T6, human CD123 expressed on cells; assay: cell-based or functional assay; remark: listed apart in the source
[23] = target: T6, human CD123 expressed on cells; assay: cell-based or functional assay; remark: listed apart in the source
[24] = target: T7, cynomolgus TCR/CD3 expressed on cells (cynomolgus); assay: flow cytometry competition, HSC-F cells, competitor T017000099 (500 nM)
T7 construct: whole, on cells; Native complex with CD3 chains; the cell type is named under assay or readout; also called cyno TCR/CD3; CD3/TCR expressed on HSC-F
Experimental: Cells were washed and incubated with Propidium Iodine to stain for dead cells, which are then removed during the gating procedure. The cells were then analysed via a BD FACSArray. First a P1 population which represented more than 80% of the total cell population was selected based on FSC-SSC distribution. In this gate, 10000 cells were counted during acquisition. From this population the PI+ cells (dead cells) were excluded and the median APC value was calculated.

[25] = target: T7, cynomolgus TCR/CD3 expressed on cells; assay: cell-based or functional assay; remark: listed apart in the source

T4 sequence (P26951 19-378 limits assumed): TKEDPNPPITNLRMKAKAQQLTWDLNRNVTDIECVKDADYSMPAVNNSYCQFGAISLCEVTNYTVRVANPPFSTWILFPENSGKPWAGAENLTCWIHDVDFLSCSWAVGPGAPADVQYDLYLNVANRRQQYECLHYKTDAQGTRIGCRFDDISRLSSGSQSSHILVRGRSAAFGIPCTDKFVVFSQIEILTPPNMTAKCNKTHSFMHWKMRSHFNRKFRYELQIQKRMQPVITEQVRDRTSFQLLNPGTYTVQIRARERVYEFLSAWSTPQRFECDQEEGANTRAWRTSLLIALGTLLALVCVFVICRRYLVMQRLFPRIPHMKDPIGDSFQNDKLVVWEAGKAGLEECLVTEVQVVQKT
T6 sequence (P26951 19-378 limits assumed): as above
T1 sequence (P04234 22-171 limits assumed, chain 1 of 4): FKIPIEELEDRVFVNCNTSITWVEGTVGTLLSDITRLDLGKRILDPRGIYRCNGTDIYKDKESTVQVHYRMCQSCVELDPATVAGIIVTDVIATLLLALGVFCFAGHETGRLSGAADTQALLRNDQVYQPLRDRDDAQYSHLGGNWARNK
T1 sequence (P09693 23-182 limits assumed, chain 2 of 4): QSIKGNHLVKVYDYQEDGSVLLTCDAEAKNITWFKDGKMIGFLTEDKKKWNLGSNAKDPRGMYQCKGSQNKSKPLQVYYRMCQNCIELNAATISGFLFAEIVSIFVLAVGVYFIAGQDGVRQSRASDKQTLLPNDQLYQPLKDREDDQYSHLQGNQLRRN
T1 sequence (P07766 23-207 limits assumed, chain 3 of 4): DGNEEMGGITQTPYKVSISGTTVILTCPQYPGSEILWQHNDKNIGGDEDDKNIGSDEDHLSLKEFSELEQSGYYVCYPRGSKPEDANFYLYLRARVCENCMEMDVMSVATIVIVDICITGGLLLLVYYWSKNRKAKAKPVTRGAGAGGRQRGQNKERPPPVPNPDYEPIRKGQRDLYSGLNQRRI
T1 sequence (P20963 22-164 limits assumed, chain 4 of 4): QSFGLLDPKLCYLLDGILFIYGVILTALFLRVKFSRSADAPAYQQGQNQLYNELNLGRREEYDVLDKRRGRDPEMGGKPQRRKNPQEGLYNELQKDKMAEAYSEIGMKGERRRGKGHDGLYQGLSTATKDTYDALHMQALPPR
T2 sequence (P01848 whole entry, chain 1 of 2): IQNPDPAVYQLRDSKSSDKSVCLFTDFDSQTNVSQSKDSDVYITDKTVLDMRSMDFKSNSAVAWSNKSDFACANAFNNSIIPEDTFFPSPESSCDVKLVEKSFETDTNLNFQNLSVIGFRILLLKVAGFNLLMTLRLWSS
T2 sequence (P01850 whole entry, chain 2 of 2): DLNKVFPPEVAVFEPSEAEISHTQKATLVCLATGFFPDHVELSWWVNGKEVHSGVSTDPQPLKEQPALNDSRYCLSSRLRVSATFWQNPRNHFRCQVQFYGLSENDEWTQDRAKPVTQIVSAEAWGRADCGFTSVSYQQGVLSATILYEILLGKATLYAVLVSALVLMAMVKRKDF

B1: T0170055A02 (VHH)
VHH: EVQLVESGGGLVQPGGSLRLSCAASGDVHKINILGWYRQAPAKEREMVAHITIGDATDYADSAKGRFTISRDEAKNMVYLQMNSLKPEDTAVYFCRAYSRIYPYNYWGQGTLVTVSS
notes: also called T0170PMP055A02; T01700055A02; not shown: C-terminal triple Flag, His6 tag
[1]
  binding result: no binding (tested: 1e-6 M)
[2]
  EC50: 91000 pM
[3]
  Kd: 210000 pM
[4]
  EC50: 160000 pM

B2: T0170056G05 (VHH)
VHH: B1 VHH with A23V, I33F, A42G, M47K, T52S, A56Q, A74S, Y98F, N105D
notes: Monovalent anti-TCR Nanobody; also called T0170PMP056G05; T01700056G05; not shown: C-terminal triple Flag, His6 tag
[1]
  binding result: no binding (tested: 1e-6 M)
[2]
  EC50: 91000 pM
[3]
  Kd: 150000 pM
[4]
  EC50: 77000 pM

B3: T017000139 (bispecific antibody)
chain: DVQLVESGGGLVQPGGSLRLSCVASGDVHKINFLGWYRQAPGKEREKVAHISIGDQTDYADSAKGRFTISRDESKNMVYLQMNSLKPEDTAVYFCRAFSRIYPYDYWGQGTLVTVSSGGGGSGGGGSGGGGSGGGGSGGGGSGGGGSGGGGSEVQLVESGGGLVQAGGPLRLSCAASGRTFSSYVMGWFRQAPGKEREFVAAIYWSNGKTQYTDSVKGRFTISGDNAKNTVYLQMNSLNPEDTAVYYCVADKDETGFRTLPIAYDYWGQGTLVTVSSGGGGSGGGGSGGGGSGGGGSGGGGSGGGGSGGGGSEVQLVESGGGLVQAGGSLRLSCAASGITSKINDMGWYRQTPGNYREWVASITATGTTNYRDSVKGRFTISRDNAKSTVYLQMNSLKPEDTTVYYCNTFPPISNFWGQGTLVTVSSA
Human CD123 [5]
  EC50 (M), human IFN-γ secretion during redirected human T cell mediated killing of CD123 positive MOLM-13 cells (ELISA): 3.4e-10 M
Human CD123 [6]
  EC50 (M), human IL-6 secretion during redirected human T cell mediated killing of CD123 positive MOLM-13 cells (ELISA): 2.3e-11 M
Human CD123 [7]
  % lysis, redirected cynomolgus T cell mediated killing of KG1a cells, flow cytometry, E:T 10:1: 34%
  % lysis, redirected human T cell mediated killing of KG1a cells, flow cytometry, E:T 10:1: 67%
  EC50 (M), redirected cynomolgus T cell mediated killing of KG1a cells, flow cytometry, E:T 10:1: 1.7e-11 M
  EC50 (M), redirected human T cell mediated killing of KG1a cells, flow cytometry, E:T 10:1: 8.1e-11 M
Human CD123 [8]
  EC50 (M), redirected cynomolgus T cell mediated killing of MOLM-13 cells, flow cytometry, E:T 10:1: 2.9e-11 M
  EC50 (M), redirected human T cell mediated killing of MOLM-13 cells, flow cytometry, E:T 10:1: 2e-11 M

B4: T017000139 (bispecific antibody)
chain: B3 chain
notes: Multispecific Nanobody polypeptide expressed in Pichia; also called T013700139
[9]
  IC50: 11000 pM
[10]
  EC50 (M), human IFN-γ secretion during human T cell mediated killing of KG1a cells: 3.2e-11 M
  EC50 (M), human IFN-γ secretion during human T cell mediated killing of MOLM-13 cells: 3.4e-10 M
[11]
  EC50 (M), IFN-γ secretion by cynomolgus T cells during killing of CD123 transfected adherent target cells: 2.3e-09 M
  EC50 (M), IFN-γ secretion by human T cells during killing of CD123 transfected adherent target cells: 1e-09 M
[12]
  IC50 (M), redirected cynomolgus T cell mediated killing of cynomolgus CD123 transfected HEK Flp-In cells, xCELLigence, E:T 15:1, 80 h: 1.1e-11 M
[13]
  EC50 (M) of CD25 upregulation on cynomolgus T cells during redirected killing of MOLM-13 cells, 72 h: 6e-11 M
[14]
  EC50 (M), redirected cynomolgus T cell mediated killing of CD123 positive MOLM-13 cells, flow cytometry, Experiment 1: 6e-11 M
  EC50 (M), redirected cynomolgus T cell mediated killing of CD123 positive MOLM-13 cells, flow cytometry, Experiment 2: 3.1e-11 M
  EC50 (M), redirected human T cell mediated killing of CD123 positive MOLM-13 cells, flow cytometry, Experiment 2: 3e-11 M
[15]
  % lysis, redirected cyno T cell mediated killing of MOLM-13 cells, flow cytometry, E:T 10:1: 55%
  EC50 (M), redirected cyno T cell mediated killing of MOLM-13 cells, flow cytometry, E:T 10:1: 1.1e-11 M
[16]
  IC50 (M), redirected human T cell mediated killing of human CD123 transfected CHO Flp-In cells, xCELLigence, E:T 15:1, 50 h: 2.4e-10 M
[17]
  IC50: 3300 pM
[18]
  % lysis, redirected human T cell mediated killing of MOLM-13 cells, flow cytometry, E:T 10:1: 29%
  EC50 (M), redirected human T cell mediated killing of MOLM-13 cells, flow cytometry, E:T 10:1: 2e-11 M
[19]
  EC50 (M), redirected cynomolgus T cell mediated killing of CD123 positive KG1a cells, flow cytometry, E:T 10:1: 1.7e-11 M
  EC50 (M), redirected human T cell mediated killing of CD123 positive KG1a cells, flow cytometry, E:T 10:1: 8.1e-11 M
[20]
  EC50 (M), human IL-6 secretion during human T cell mediated killing of CD123 transfected adherent target cells: 4.8e-10 M
[21]
  IC50: 3700 pM
[22]
  % lysis, redirected human T cell mediated killing of KG1a cells, flow cytometry, E:T 10:1: 27%
  EC50 (M), redirected human T cell mediated killing of KG1a cells, flow cytometry, E:T 10:1: 1.1e-10 M
[23]
  EC50 (M), human IL-6 secretion during human T cell mediated killing of MOLM-13 cells: 2.3e-11 M
[24]
  IC50: 640000 pM
[25]
  % lysis, redirected cyno T cell mediated killing of KG1a cells, flow cytometry: 42%
  EC50 (M), redirected cyno T cell mediated killing of KG1a cells, flow cytometry: 2.6e-11 M
